In the nanobody polyreactivity screen of Harvey et al. (2022):

Test: yeast display, Sf9 membrane polyspecificity reagent, FACS + sequencing; frameworks hold sequencing errors
How it was run: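 A nanobody's polyreactivity label depends on the gate it was sorted from. Yeast display cells were stained with 10% biotinylated, detergent-solubilized Sf9 membrane reagent for 1 hour at 4 °C, enriched on streptavidin microbeads and sorted by FACS. The low and high (top ~1%) gates were set on anti-HA fluorescence for expression and streptavidin fluorescence for reagent binding.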

Sequence | polyreactivity (PSR sort gate)
QVQLVESGGGLVQAGGSLRLSCAASGSIFQSNAMGWYRQPPGKERELVAAISSSGVRTYYADSVKGRFTISRDNAKNTVYLQMNSLKPEDTAVYFCATGWYYAGGPTYEYYYWGQGTQVTVSS | low polyreactivity
QVQLVESGGGLVQAGGSLRLSCAASGFILDYNAMGWSRQAPGKERELVASIDSGGGTNYADSVKGRFTISRDNAKNTVYLQMNSLKPEDTAVYYCAADVTLWYDYGGQGTQVTVSS | low polyreactivity
QVQLVESGRGLVQAGGSLRLSCAASGFTFVYYAMGWYRQAPGKERELVATISGNGGRTYYADSVKGRFTISRDNAKNTVYLQMNSLKPEDTAVYYCAALLYIRSVGYDYWGQGTQVTVSS | low polyreactivity
QVQLVESGGGLVQAGGSLRLSCAASGLIFIIYTRGWSRQAPGKERELVAAITRRGGITYYADSVKGRFTISRDNAKNTVYLQMNSLKPEDTAVYYCAVVRPYNIWYDYWGQGTQVTVSS | low polyreactivity
QGQLVESAGGLVQAGGSLRLSCGASGRSFYSYTMGWYRQAPVKERELVAAITRADRTHYADSVKGRFTISRDYATKHVDCERNSQKPEDTAVYYAATRQVYSVRYYYRGQGTQVTVSS | high polyreactivity
QVQLVESGGGLVQAGGSLRLSCAASGSTFWVYAMGWYRPAPGKERELVAAIDYSGGSTYYADSVKGRFTISRDNAKNTVYLQMNSLKPEDTAVYYGAAGEGQYWLWDGEGEYDYWGQGTQVTVSS | low polyreactivity
HVQQQESGGGLVQAGGSLRLSCAASGYISVVIGMCWYRQSPGKERELVASIAYGAITYYTDRVKGRFTISRDYAKNTEYLQMNSLKAEDTAVYYCAADQPPLAYHWYWGQGTQATVSS | high polyreactivity
QVQLVESGGGLVQAGGSLRLSCAASGLTFIFYAMGWYRQAPGKERELVATIRRSGSTYYADSVKGRFTISRDNAKNTVYLQMNSLKPEDTAVYYCNARYPYSYGDYWGQGTQVTVSS | high polyreactivity
QVQLVESGGGLVQAGVSLRLSCAASGGTFSRNAMGWYRQAPGKERELVAAINSSGVSTSYADSVKGRFTISRDNAKNTVYLQMNSLKPEDTAVYYCAAETSSAEVDYWGQGTQVTVSS | low polyreactivity
QVQLVESGGGLVQAGGSLRLSCAASGFIFGRYAMGWYRQAPGKERELVAAITWSGGRTYYADSVKGRFTISRDNAKNTVFLQMNSLKPEDTAVYYCNAQGYTTYRGDYWGQGTQVTVSS | high polyreactivity
QVQLVESGGGLVQAGGSLRLSCAASGSIFWDYAMGRYRQAPGKERELVASITSGGSTYYADSVKGRFTISRDNAKNTVYLQMNSLKPEDTAVYYCAADGHTRHWGQTGRGAMYYWGQGTQVTVSS | low polyreactivity
QVQLVESGGGLVQAGGSLRLSCAASGRIFRYYAMGWYRQAPGKERELVATISGRGGSTYYADSVKGRFTISRDNAKNTVYREMNSLKPEDTAVYYCYTVSTRYIYDYWGQGTQVTVSS | high polyreactivity
QVQLVDSGGGLVQAGGSLRLSCAASGSIFSAYAMGWYRQAPGKERELVAAITFGGSTYYADSVKGRFTISRDNAKNTVYLQMNSLKPEDTAVYYCNAYYPFVGLYLGHDYWGQGTQVTVSS | low polyreactivity
QVQLVESGGGLVQAGGSLRLSCAASGSTFYRYTMGWYRQAPGKEREFVATITGRGGSTYADSVKGRFTISRDNAKNTVYLQMNSLKPEDTAVYYCAKRQTYREYDYWGQGTQVTVSS | low polyreactivity
QVQLVESGGGLVQAGASLRLSCAASGIIFYANAMGWYRQAPGTERELVAAITFSGGSTYYADSVKGRFTISRDNAKNTVYLQMNSLKPEDTAVYYCAADKRFIPPHPHPLEFDYWGQGTQVTVSS | low polyreactivity
QVQLVESGGGLVQAGGSLRLSCAASGFNFRYYAMGWYRQAPGKERELVAAISASSGRTYYADSVKGRFTISRDNAKNTVYLQMNSLKPEDTAVYYCAAEYIRNGDYGLDYWGQGTQVTVSS | high polyreactivity
QVQLVESGGGLVQAGGSLRLSCAASGIIFRWYAMGWYRQAPGKERELVAAITRSGGSTYYADSVKGRFTISRDNAKNTVYLQMNSLKPEDTAVYYCAAEYYAPSYKFDYWGQGTQVTVSS | high polyreactivity
QAQLQESGGSLVQAGGGLRLSCAASGYISVGSVMGWYRQAPSKERELGASIDQGANTNYADSVKGRFTISRDNAKNNVYLQMNSLKPEDTAVYYCATETTYILNYWGQGTQVTVSS | low polyreactivity
QVQLVESRGGLVQAGGSLRLSCAASGITSPYAMGWYRQAPGKERELVAAISWSGSSTYYADSVKGRFTISRDNAKNTVYLQMNSLKPQDTAVYYCNTVGTRQPMDYWGQGTQVTVSS | high polyreactivity
QVQLVESGGGLVQAGGSLRLSCAASGRIFYRNVMGWYRQAPGKERELVAAITYRTGSTYYADSVKGRFTISRDNAKNTVYLQMNSLKPEDTAVYYCATESGLTYDYWGQGTQVTVSS | high polyreactivity
QVHLVESGGGLVQAGGSLRLSCAASGSTFTYYDMVWYRKAPGNETELLATIDSTTRTYYADSVKGRFTISRDNAKNTVSLQMNSLKPEETAVYYCAADLTWAYFYYLFYRYDYWGQGTQVTVSS | low polyreactivity
QVQLVESGGGLVQAGGSLRLSCAASGFIFKGNAMGWSRQAPGKERELVAAISSRGGSTYYADSVKGRFTISRDNAKNTVYLQMNSLKPEDTAVYYCATRVYWRNDYWGQGTQVTVSS | high polyreactivity
